± gives the standard error. For some of these results: This sample holds only a part of the variants without activity. Where only a bound is given, the exact number is not on record here.

We go through 23 variants from the supplement of paper PMC7125110.

The labels stand for the following.
B1: glmS ribozyme (parent)
chain: AUAAAAGCGCCAGAACUACAGAAAUGUAGUUGACGAGGAGGAGGUUUAUCGAAUUUUCGGCGGAUGCCUCCAAA

What all share (settings): with glucosamine-6-phosphate
Variants of B1 are the subject of series [1]. The series is described as follows: self-cleavage kobs at 40 uM GlcN6P; higher = faster cleavage; RNA array. A digest of the protocol:
(§1)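 Tiles bearing barcoded ribozyme variants, transcribed in situ by E. coli RNA polymerase on sequenced MiSeq chips, were imaged over ~14 h at 37 °C using a hybridised Cy3 probe. Glucosamine-6-phosphate was supplied at 40 μM to 10 mM in HEPES/KCl/Mg(OAc)2 buffer. kobs came from one- or two-exponential decay fits to normalised per-tile medians, and weighted Michaelis–Menten fits then provided kcat and KM.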

The variants in series [2] derive from B1. The series is described as follows: self-cleavage kobs at 160 uM GlcN6P; higher = faster cleavage; RNA array. A digest of the protocol: as §1
In series [3] the parent is B1. The series is described as follows: self-cleavage kobs at 2500 uM GlcN6P; higher = faster cleavage; RNA array. A digest of the protocol: as §1
In series [4] the parent is B1. The experiment in a line: kcat; higher = faster cleavage; RNA array. Summed up:
as §1

Series [5] covers variants of B1. The experiment in a line: self-cleavage kobs at 640 uM GlcN6P; higher = faster cleavage; RNA array. Summed up:
as §1

Variants of B1 are the subject of series [6]. The experiment in a line: self-cleavage kobs at 10000 uM GlcN6P; higher = faster cleavage; RNA array. A digest of the protocol: as §1
In series [7] the parent is B1. The experiment in a line: KM; higher = weaker cofactor use; RNA array. Summed up: as §1

In the case of C8U A52U C58U A64C C70U, in series [1], the “self-cleavage kobs at 40 uM GlcN6P” value is less than 1e-05 s⁻¹. Moreover, the “self-cleavage kobs at 160 uM GlcN6P” value in series [2] was less than 1e-05 s⁻¹. In addition, the “self-cleavage kobs at 2500 uM GlcN6P” value in series [3] is less than 1e-05 s⁻¹.
For C11G G59U C68A, the kcat (usually the maximal rate divided by the concentration of active sites) in series [4] was 1.43e-05 ± 2.1e-06 s⁻¹.
As to G44A A64C, in series [1], the “self-cleavage kobs at 40 uM GlcN6P” value is less than 1e-05 s⁻¹. Also, the “self-cleavage kobs at 640 uM GlcN6P” value in series [5] was less than 1e-05 s⁻¹. For the same variant, the “self-cleavage kobs at 2500 uM GlcN6P” value in series [3] was less than 1e-05 s⁻¹. For the same variant, in series [6], the “self-cleavage kobs at 10000 uM GlcN6P” value is less than 1e-05 s⁻¹.
On to A14G U47A C50A, for which the “self-cleavage kobs at 40 uM GlcN6P” value in series [1] is less than 1e-05 s⁻¹.
C10A A64U: the “self-cleavage kobs at 40 uM GlcN6P” value in series [1] is less than 1e-05 s⁻¹. The “self-cleavage kobs at 640 uM GlcN6P” value in series [5] was less than 1e-05 s⁻¹. Moreover, the “self-cleavage kobs at 2500 uM GlcN6P” value in series [3] is less than 1e-05 s⁻¹. Moreover, the “self-cleavage kobs at 10000 uM GlcN6P” value in series [6] was less than 1e-05 s⁻¹.
With A6G A36C C71U, the “self-cleavage kobs at 40 uM GlcN6P” value in series [1] was less than 1e-05 s⁻¹. In addition, in series [6], the “self-cleavage kobs at 10000 uM GlcN6P” value was less than 1e-05 s⁻¹.
C10U U46A U49A U65C C68G: the “self-cleavage kobs at 40 uM GlcN6P” value in series [1] is less than 1e-05 s⁻¹. For the same variant, the “self-cleavage kobs at 10000 uM GlcN6P” value in series [6] was less than 1e-05 s⁻¹.
Turning to C58A G59U G60U, the “self-cleavage kobs at 40 uM GlcN6P” value in series [1] was less than 1e-05 s⁻¹. The “self-cleavage kobs at 10000 uM GlcN6P” value in series [6] was less than 1e-05 s⁻¹.
With G13A C50G C68G, the “self-cleavage kobs at 40 uM GlcN6P” value in series [1] came to 7.03e-05 ± 1.5e-05 s⁻¹. In addition, the “self-cleavage kobs at 2500 uM GlcN6P” value in series [3] was 0.000125 ± 2.6e-05 s⁻¹. For the same variant, the “self-cleavage kobs at 10000 uM GlcN6P” value in series [6] was determined as 9.04e-05 ± 1.9e-05 s⁻¹.
Regarding G9A A12C, in series [4], the kcat was less than 1e-05 s⁻¹. Also, the “self-cleavage kobs at 640 uM GlcN6P” value in series [5] is less than 1e-05 s⁻¹.
On to C50U A64U, for which the “self-cleavage kobs at 40 uM GlcN6P” value in series [1] is less than 1e-05 s⁻¹. In addition, the “self-cleavage kobs at 160 uM GlcN6P” value in series [2] is less than 1e-05 s⁻¹. In series [6], the “self-cleavage kobs at 10000 uM GlcN6P” value was less than 1e-05 s⁻¹.
Regarding A53U C61U, in series [1], the “self-cleavage kobs at 40 uM GlcN6P” value was less than 1e-05 s⁻¹. Further, the “self-cleavage kobs at 160 uM GlcN6P” value in series [2] was less than 1e-05 s⁻¹.
For G51C U55A, the “self-cleavage kobs at 40 uM GlcN6P” value in series [1] was less than 1e-05 s⁻¹. Also, the “self-cleavage kobs at 640 uM GlcN6P” value in series [5] is less than 1e-05 s⁻¹.
For A14G U31C G41C G63A, the “self-cleavage kobs at 40 uM GlcN6P” value in series [1] is less than 1e-05 s⁻¹. In addition, the “self-cleavage kobs at 10000 uM GlcN6P” value in series [6] is less than 1e-05 s⁻¹.
As to G40C A48U, in series [4], the kcat stood at 0.000238 ± 7.3e-05 s⁻¹. Further, the “self-cleavage kobs at 40 uM GlcN6P” value in series [1] is less than 1e-05 s⁻¹. Besides, the “self-cleavage kobs at 160 uM GlcN6P” value in series [2] was less than 1e-05 s⁻¹. Besides, the “self-cleavage kobs at 10000 uM GlcN6P” value in series [6] was found to be 5.01e-05 ± 8.4e-06 s⁻¹.
With G29C A33G G38A G40C G43C, the “self-cleavage kobs at 40 uM GlcN6P” value in series [1] was less than 1e-05 s⁻¹.
On to A39U C71U, for which the kcat in series [4] is 0.0168 ± 0.0026 s⁻¹. In addition, the KM (usually the concentration of substrate that gives half-maximal velocity) in series [7] is 1030 ± 230 µM. The “self-cleavage kobs at 40 uM GlcN6P” value in series [1] was 0.000702 ± 7.4e-05 s⁻¹. Also, the “self-cleavage kobs at 160 uM GlcN6P” value in series [2] stood at 0.00196 ± 0.00029 s⁻¹. Further, the “self-cleavage kobs at 640 uM GlcN6P” value in series [5] was 0.00657 ± 0.00085 s⁻¹. Besides, in series [3], the “self-cleavage kobs at 2500 uM GlcN6P” value was found to be 0.0105 ± 0.0014 s⁻¹. Further, the “self-cleavage kobs at 10000 uM GlcN6P” value in series [6] was 0.0183 ± 0.0026 s⁻¹.
As for G38U A64C, the “self-cleavage kobs at 40 uM GlcN6P” value in series [1] was less than 1e-05 s⁻¹. For the same variant, the “self-cleavage kobs at 160 uM GlcN6P” value in series [2] was less than 1e-05 s⁻¹. In addition, in series [3], the “self-cleavage kobs at 2500 uM GlcN6P” value was less than 1e-05 s⁻¹. The “self-cleavage kobs at 10000 uM GlcN6P” value in series [6] is less than 1e-05 s⁻¹.
For C8G G63A, in series [1], the “self-cleavage kobs at 40 uM GlcN6P” value is less than 1e-05 s⁻¹. In series [2], the “self-cleavage kobs at 160 uM GlcN6P” value was less than 1e-05 s⁻¹. Further, the “self-cleavage kobs at 640 uM GlcN6P” value in series [5] was less than 1e-05 s⁻¹. The “self-cleavage kobs at 2500 uM GlcN6P” value in series [3] is less than 1e-05 s⁻¹. Besides, the “self-cleavage kobs at 10000 uM GlcN6P” value in series [6] is less than 1e-05 s⁻¹.
Consider A6G C16G C67G, for which, in series [1], the “self-cleavage kobs at 40 uM GlcN6P” value was less than 1e-05 s⁻¹.
With C10U G40U U49A, the “self-cleavage kobs at 40 uM GlcN6P” value in series [1] was less than 1e-05 s⁻¹. Moreover, the “self-cleavage kobs at 640 uM GlcN6P” value in series [5] was less than 1e-05 s⁻¹.
As for C8U U54A, the “self-cleavage kobs at 40 uM GlcN6P” value in series [1] is less than 1e-05 s⁻¹. In series [2], the “self-cleavage kobs at 160 uM GlcN6P” value was less than 1e-05 s⁻¹. Besides, the “self-cleavage kobs at 640 uM GlcN6P” value in series [5] was less than 1e-05 s⁻¹. Further, in series [3], the “self-cleavage kobs at 2500 uM GlcN6P” value was less than 1e-05 s⁻¹. Besides, the “self-cleavage kobs at 10000 uM GlcN6P” value in series [6] is less than 1e-05 s⁻¹.
As to C16G C71A, in series [4], the kcat was determined as 0.000641 ± 0.00015 s⁻¹. Besides, the Michaelis-Menten constant (KM) in series [7] was 2900 ± 1000 µM. In series [5], the “self-cleavage kobs at 640 uM GlcN6P” value was found to be 0.000111 ± 1.9e-05 s⁻¹. The “self-cleavage kobs at 2500 uM GlcN6P” value in series [3] was 0.000462 ± 0.00011 s⁻¹. Besides, in series [6], the “self-cleavage kobs at 10000 uM GlcN6P” value is 0.000465 ± 8.7e-05 s⁻¹.
